By Kd is commonly meant the free concentration of one partner at which half of the binding sites on the other are occupied at equilibrium, for simple one-to-one binding.

For the assay, the target named is XMAP-Ct, C-terminal coiled-coil fragment of XMAP215 (Xenopus) (UniProt Q9PT63). As to the kind of experiment: SPR. Conditions: domain or fragment.
Chain of XMAP-Ct, C-terminal coiled-coil fragment of XMAP215 (Xenopus) (Q9PT63 2002-2065): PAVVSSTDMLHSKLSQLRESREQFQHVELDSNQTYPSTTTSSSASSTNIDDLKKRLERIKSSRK

Chain of TD5, TACC domain fragment of XTACC3 with a deletion of helix α1 (Q9PTG8 whole entry, stated change not applied, the tested form may be a part): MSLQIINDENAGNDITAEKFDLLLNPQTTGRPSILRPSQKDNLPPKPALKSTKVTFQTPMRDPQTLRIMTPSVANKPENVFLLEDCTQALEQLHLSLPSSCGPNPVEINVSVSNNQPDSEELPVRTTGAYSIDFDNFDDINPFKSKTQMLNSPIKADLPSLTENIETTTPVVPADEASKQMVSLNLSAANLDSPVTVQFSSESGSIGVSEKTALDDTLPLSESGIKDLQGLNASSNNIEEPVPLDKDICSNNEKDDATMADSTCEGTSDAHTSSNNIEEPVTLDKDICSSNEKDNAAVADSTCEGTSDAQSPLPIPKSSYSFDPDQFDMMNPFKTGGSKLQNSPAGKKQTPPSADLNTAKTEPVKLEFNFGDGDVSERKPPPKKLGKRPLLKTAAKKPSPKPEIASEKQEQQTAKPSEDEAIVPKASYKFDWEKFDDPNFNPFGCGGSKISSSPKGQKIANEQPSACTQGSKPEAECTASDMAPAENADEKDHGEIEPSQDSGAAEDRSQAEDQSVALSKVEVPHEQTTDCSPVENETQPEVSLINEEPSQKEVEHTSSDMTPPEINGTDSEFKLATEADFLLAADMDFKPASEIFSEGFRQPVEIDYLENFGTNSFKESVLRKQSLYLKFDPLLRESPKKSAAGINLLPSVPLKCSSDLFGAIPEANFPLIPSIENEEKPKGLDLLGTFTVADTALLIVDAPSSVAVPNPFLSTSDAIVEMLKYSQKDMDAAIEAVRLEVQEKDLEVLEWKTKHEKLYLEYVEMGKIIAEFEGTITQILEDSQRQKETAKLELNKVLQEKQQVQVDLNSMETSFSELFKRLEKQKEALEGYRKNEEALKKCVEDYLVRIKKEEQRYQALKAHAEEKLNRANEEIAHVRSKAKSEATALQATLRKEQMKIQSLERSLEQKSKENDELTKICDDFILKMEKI

“TD5, TACC domain fragment of XTACC3 with a deletion of helix α1” had a Kd of 4.3 µM.

Values taken from article PMC4200520.
